Experimental data published in US20250282851A1.

Key:
[1] = molecular target: Gn protein of Rift Valley fever virus (Rift Valley fever virus)
[2] = molecular target: purified truncated Gn protein of Rift Valley fever virus (Rift Valley fever virus)
[3] = molecular target: purified truncated Gn protein of Rift Valley fever virus (Rift Valley fever virus); assay: ELISA, truncated Gn coated at 2 ug/mL, 50 uL 293T expression supernatant

B1: monoclonal antibody A38 (antibody, V domains shown)
VH: VQLVQELGPGLVKPSETLSLTCAVSGYSISSPYSWGWIRQPPGKGLEWIGGVYSSGEIRHLDPSLKSRVTLSLDTSKNQFSLKLNSVTAADTAVYFCASANGGVAQDAFDFWGQGLRVTVSS
VL: QPVLTQPPSLSAPPGASARLPCTLSSDLSVTSLNIYWYQQKSGSAPRLFLYYYSDSDKQLGPGVPSRVSGSKETSSNTALLFISGLQPEDEADYYCQVYDSSAYVLFGGGTRLTVLG
Q: Which Kd [1] does the source give for B1 here?
A: The Kd was 0.972 nM.

Q: What about the koff [1] of the same binder?
A: Its koff is 0.00013 s⁻¹.

Q: And the kon [1]?
A: Its kon is 133000 M⁻¹ s⁻¹.

Q: And the EC50 [2]?
A: Its EC50 is 4.51 ng/mL.

Q: What about the OD value (OD450 nm-OD630 nm) [3] of the same binder?
A: Its OD value (OD450 nm-OD630 nm) is 1.4 OD.
